Data published in patent US20110111461A1 (Hoffmann-La Roche, published 2011).

The binders below were run against T1, human epidermal growth factor receptor (EGFR) (human, UniProt P00533 25-1210) (assay: flow cytometry on A431 cells).
T1 construct: whole, on cells; also called HER-1; ErbB1
Protocol: (§1) The purified, monomeric humanized antibody variants were tested for binding to human epidermal growth factor receptor (EGFR, also referred to in the literature as HER-1 or ErbB1) on the A431 human epidermal cell line, using a flow cytometry-based assay. 200,000 cells (e.g., from human A431 cell line) in 180 μl FACS buffer (PBS containing 2% FCS and 5 mM EDTA) were transferred to 5 ml polystyrene tubes and 20 μl 10 fold concentrated anti-EGFR antibody (primary antibody) samples (1-5000 ng/ml final concentration) or PBS only were added. After gently mixing the samples, the tubes were incubated at 4° C. for 30 min in the dark. Subsequently, samples were washed twice with FACS buffer and pelleted at 300×g for 3 min. Supernatant was aspirated off and cells were taken up in 50 μl FACS buffer and 2 μl secondary antibody (anti-Fc-specific F(ab′)2-FITC fragments (Jackson Immuno Research Laboratories, USA)) was added and the tubes were incubated at 4° C. for 30 min. Samples were washed twice with FACS buffer and taken up in 500 μl of FACS buffer for analysis by Flow Cytometry. Binding was determined by plotting the geometric mean fluorescence against the antibody concentrations.
Only the I-HHA has strongly diminished binding activity (see FIG. 2). […] In this experiment, either the light chain, the heavy chain or both chains simultaneously of the ch-ICR62 were replaced by the above mentioned humanized constructs.

| binding result | EC50 | EC50 fold increase relative to ch-ICR62, I-HLA1 and I-HLA2 | EC50 fold decrease relative to ch-ICR62 | Binder |
| --- | --- | --- | --- | --- |
| – | – | 2 fold | – | humanized ICR62 antibody I-HLA5 / I-KC (antibody, human IgG1, V domains shown) VH: QMQLVQSGPEVKKPGTSVKVSCKASGFTFTDYYMHWVRQAPGQGLEWMGWINPNSGYSTYSPSFQGQVTISADKSISTAYLQWSSLKASDTAMYYCARLSPGGYYVMDAWGQGTTVTVSS VL: DIQMTQSPSSLSASVGDRVTITCRASQGINNYLNWYQQKPGKAPKRLIYNTNNLQTGVPSRFSGSGSGTEFTLTISSLQPEDFATYYCLQHNSFPTFGQGTKLEIKR |
| – | – | – | 2 fold | humanized ICR62 antibody I-HLA8 / I-KC (antibody, human IgG1, V domains shown) VH: QMQLVQSGPEVKKPGTSVKVSCKASGFTFTDYKIHWVRQAPGQGLEWMGYFNPNSGYSTYAQKFQGRVTITADKSTSTAYMELSSLRSEDTAVYYCARLSPGGYYVMDAWGQGTTVTVSS VL: DIQMTQSPSSLSASVGDRVTITCRASQGINNYLNWYQQKPGKAPKRLIYNTNNLQTGVPSRFSGSGSGTEFTLTISSLQPEDFATYYCLQHNSFPTFGQGTKLEIKR |
| – | ~0.3 µg/mL | – | – | humanized ICR62 antibody I-HLA1 / I-KC (antibody, human IgG1, V domains shown) VH: QVQLVQSGAEVKKPGASVKVSCKASGFTFTDYYMHWVRQAPGQGLEWMGWINPNSGYSTYSPSFQGQVTISADKSISTAYLQWSSLKASDTAMYYCARLSPGGYYVMDAWGQGTTVTVSS VL: DIQMTQSPSSLSASVGDRVTITCRASQGINNYLNWYQQKPGKAPKRLIYNTNNLQTGVPSRFSGSGSGTEFTLTISSLQPEDFATYYCLQHNSFPTFGQGTKLEIKR |
| – | – | 2 fold | – | humanized ICR62 antibody I-HLA6 / I-KC (antibody, human IgG1, V domains shown) VH: QMQLVQSGPEVKKPGTSVKVSCKASGFTFTDYYMHWVRQAPGQGLEWMGWINPNSGYSTYNEKFQGQVTISADKSISTAYLQWSSLKASDTAMYYCARLSPGGYYVMDAWGQGTTVTVSS VL: DIQMTQSPSSLSASVGDRVTITCRASQGINNYLNWYQQKPGKAPKRLIYNTNNLQTGVPSRFSGSGSGTEFTLTISSLQPEDFATYYCLQHNSFPTFGQGTKLEIKR |
| – | – | 2 fold | – | humanized ICR62 antibody I-HLA3 / I-KC (antibody, human IgG1, V domains shown) VH: QVQLVQSGAEVKKPGASVKVSCKASGYTFTDYYMHWVRQAPGQGLEWMGWINPNSGYSTYSPSFQGQVTISADKSISTAYLQWSSLKASDTAMYYCARLSPGGYYVMDAWGQGTTVTVSS VL: DIQMTQSPSSLSASVGDRVTITCRASQGINNYLNWYQQKPGKAPKRLIYNTNNLQTGVPSRFSGSGSGTEFTLTISSLQPEDFATYYCLQHNSFPTFGQGTKLEIKR |
| – | – | 2 fold | – | humanized ICR62 antibody I-HLA4 / I-KC (antibody, human IgG1, V domains shown) VH: QVQLVQSGAEVKKPGASVKVSCKASGYTFTDYYMHWVRQAPGQGLEWMGWINPNSGYSTYNEKFQGQVTISADKSISTAYLQWSSLKASDTAMYYCARLSPGGYYVMDAWGQGTTVTVSS VL: DIQMTQSPSSLSASVGDRVTITCRASQGINNYLNWYQQKPGKAPKRLIYNTNNLQTGVPSRFSGSGSGTEFTLTISSLQPEDFATYYCLQHNSFPTFGQGTKLEIKR |

Second part, the binder before the results:

| Binder | binding result | EC50 | EC50 fold increase relative to ch-ICR62, I-HLA1 and I-HLA2 | EC50 fold decrease relative to ch-ICR62 |
| --- | --- | --- | --- | --- |
| humanized ICR62 antibody I-HHB / I-KC (not glycoengineered) (antibody, human IgG1, V domains shown, also called I-HHB/KC) VH: QVQLVQSGAEVKKPGSSVKVSCKGSGFTFTDYKIHWVRQAPGQGLEWMGYFNPNSGYSTYAQKFQGRVTITADKSTSTAYMELSSLRSEDTAVYYCARLSPGGYYVMDAWGQGTTVTVSS VL: DIQMTQSPSSLSASVGDRVTITCRASQGINNYLNWYQQKPGKAPKRLIYNTNNLQTGVPSRFSGSGSGTEFTLTISSLQPEDFATYYCLQHNSFPTFGQGTKLEIKR | binds | – | – | – |
| humanized ICR62 antibody I-HLA2 / I-KC (antibody, human IgG1, V domains shown) VH: QVQLVQSGAEVKKPGASVKVSCKASGFTFTDYYMHWVRQAPGQGLEWMGWINPNSGYSTYNEKFQGQVTISADKSISTAYLQWSSLKASDTAMYYCARLSPGGYYVMDAWGQGTTVTVSS VL: DIQMTQSPSSLSASVGDRVTITCRASQGINNYLNWYQQKPGKAPKRLIYNTNNLQTGVPSRFSGSGSGTEFTLTISSLQPEDFATYYCLQHNSFPTFGQGTKLEIKR | – | ~0.3 µg/mL | – | – |
| I-HHC heavy chain combined with the chimeric ICR62 light chain (rVL) (antibody, human IgG1, V domains shown, also called I-HHC / rVL) VH: QVQLVQSGAEVKKPGSSVKVSCKGSGFTFTDYKIHWVRQAPGQGLEWMGYFNPNSGYSTYNEKFKSRVTITADKSTSTAYMELSSLRSEDTAVYYCARLSPGGYYVMDAWGQGTTVTVSS VL: DIQMTQSPSFLSASVGDRVTINCKASQNINNYLNWYQQKLGEAPKRLIYNTNNLQTGIPSRFSGSGSGTDYTLTISSLQPEDFATYFCLQHNSFPTFGAGTKLELKR | binds | – | – | – |
| humanized ICR62 antibody I-HHF / I-KC (antibody, human IgG1, V domains shown) VH: QVQLVQSGAEVKKPGSSVKVSCKGSGFTFTDYKIHWVRQAPGQGLEWMGYFNPNSGYSNYAQKFQGRVTITADKSTSTAYMELSSLRSEDTAVYYCARLSPGGYYVMDAWGQGTTVTVSS VL: DIQMTQSPSSLSASVGDRVTITCRASQGINNYLNWYQQKPGKAPKRLIYNTNNLQTGVPSRFSGSGSGTEFTLTISSLQPEDFATYYCLQHNSFPTFGQGTKLEIKR | binds | – | – | – |
| humanized ICR62 antibody I-HHG / I-KC (antibody, human IgG1, V domains shown) VH: QVQLVQSGAEVKKPGSSVKVSCKGSGFTFTDYKIHWVRQAPGQGLEWMGYFNPNSGYATYAQKFQGRVTITADKSTSTAYMELSSLRSEDTAVYYCARLSPGGYYVMDAWGQGTTVTVSS VL: DIQMTQSPSSLSASVGDRVTITCRASQGINNYLNWYQQKPGKAPKRLIYNTNNLQTGVPSRFSGSGSGTEFTLTISSLQPEDFATYYCLQHNSFPTFGQGTKLEIKR | binds | – | – | – |
| humanized ICR62 antibody I-HLA / I-KB (antibody, human IgG1, V domains shown) VH: QVQLVQSGAEVKKPGASVKVSCKASGFTFTDYYMHWVRQAPGQGLEWMGWINPNSGYSTYAQKFQGRVTMTADTSISTAYMELSRLRSDDTAVYYCARLSPGGYYVMDAWGQGTTVTVSS VL: DIQMTQSPSSLSASVGDRVTITCKASQNINNYLNWYQQKPGKAPKRLIYNTNNLQTGVPSRFSGSGSGTEYTLTISSLQPEDFATYYCLQHNSFPTFGQGTKLEIKR | binds | – | – | – |
| humanized ICR62 antibody I-HLA9 / I-KC (antibody, human IgG1, V domains shown) VH: EVQLVQSGAEVKKPGESLKISCKGSGYSFTDYKIHWVRQAPGQGLEWMGYFNPNSGYSTYAQKFQGRVTITADKSTSTAYMELSSLRSEDTAVYYCARLSPGGYYVMDAWGQGTTVTVSS VL: DIQMTQSPSSLSASVGDRVTITCRASQGINNYLNWYQQKPGKAPKRLIYNTNNLQTGVPSRFSGSGSGTEFTLTISSLQPEDFATYYCLQHNSFPTFGQGTKLEIKR | binds | – | – | – |
| humanized ICR62 antibody I-HLA / I-KA (antibody, human IgG1, V domains shown) VH: QVQLVQSGAEVKKPGASVKVSCKASGFTFTDYYMHWVRQAPGQGLEWMGWINPNSGYSTYAQKFQGRVTMTADTSISTAYMELSRLRSDDTAVYYCARLSPGGYYVMDAWGQGTTVTVSS VL: DIQMTQSPSSLSASVGDRVTITCRASQGINNYLNWYQQKPGKAPKRLIYNTNNLQTGVPSRFSGSGSGTEYTLTISSLQPEDFATYYCLQHNSFPTFGQGTKLEIKR | binds | – | – | – |
| humanized ICR62 antibody I-HHC / I-KB (antibody, human IgG1, V domains shown) VH: QVQLVQSGAEVKKPGSSVKVSCKGSGFTFTDYKIHWVRQAPGQGLEWMGYFNPNSGYSTYNEKFKSRVTITADKSTSTAYMELSSLRSEDTAVYYCARLSPGGYYVMDAWGQGTTVTVSS VL: DIQMTQSPSSLSASVGDRVTITCKASQNINNYLNWYQQKPGKAPKRLIYNTNNLQTGVPSRFSGSGSGTEYTLTISSLQPEDFATYYCLQHNSFPTFGQGTKLEIKR | binds | – | – | – |
| humanized ICR62 antibody I-HLA7 / I-KC (antibody, human IgG1, V domains shown) VH: QMQLVQSGPEVKKPGTSVKVSCKASGFTFTDYKIHWVRQARGQRLEWIGWINPNSGYSTYNEKFQGQVTISADKSISTAYLQWSSLKASDTAMYYCARLSPGGYYVMDAWGQGTTVTVSS VL: DIQMTQSPSSLSASVGDRVTITCRASQGINNYLNWYQQKPGKAPKRLIYNTNNLQTGVPSRFSGSGSGTEFTLTISSLQPEDFATYYCLQHNSFPTFGQGTKLEIKR | binds | – | – | – |

These binders were tested against T1, human epidermal growth factor receptor … (assay: flow cytometry on A431 cells; light chain variants paired with I-HHD).
Protocol: as §1
Each of the I-KC variant constructs (I-KCl to I-KC9) was paired with a heavy chain variable region comprising construct I-HHD (SEQ ID NO:16 and SEQ ID NO:15) and a binding assay performed according to the methods described in the previous examples. Constructs I-KCl to I-KC9 were compared to the I-KC construct (SEQ ID NO:46 and SEQ ID NO:45) for binding affinity to EGFR in A431 target cells (FIG. 29). […] Therefore, when paired with a chimeric (e.g., humanized) heavy chain construct specific for EGFR, the light chain can be entirely human (e.g., from a human light chain V gene sequence) and still retain specific binding for EGFR. In particular, CDR2 and CDR3 can be entirely in human germline form.

| binding result | Binder |
| --- | --- |
| binds | humanized ICR62 antibody I-HHD / I-KC2 (antibody, human IgG1, V domains shown) VH: QVQLVQSGAEVKKPGSSVKVSCKASGFTFTDYKIHWVRQAPGQGLEWMGYFNPNSGYSTYAQKFQGRVTITADKSTSTAYMELSSLRSEDTAVYYCARLSPGGYYVMDAWGQGTTVTVSS VL: DIQMTQSPSSLSASVGDRVTITCRASQGINNWLNWYQQKPGKAPKRLIYNTNNLQTGVPSRFSGSGSGTEFTLTISSLQPEDFATYYCLQHNSFPTFGQGTKLEIKR |
| binds | humanized ICR62 antibody I-HHD / I-KC1 (antibody, human IgG1, V domains shown, also called I-KCl) VH: QVQLVQSGAEVKKPGSSVKVSCKASGFTFTDYKIHWVRQAPGQGLEWMGYFNPNSGYSTYAQKFQGRVTITADKSTSTAYMELSSLRSEDTAVYYCARLSPGGYYVMDAWGQGTTVTVSS VL: DIQMTQSPSSLSASVGDRVTITCRASQGIRNYLNWYQQKPGKAPKRLIYNTNNLQTGVPSRFSGSGSGTEFTLTISSLQPEDFATYYCLQHNSFPTFGQGTKLEIKR |
